Results published in patent US20100061996A1.

Legend:
Assay in all cases: cell-based or functional assay
[1] = target: pro-uPA (pro-urokinase-type plasminogen activator, single-chain zymogen form of uPA) (UniProt P00749)
[2] = target: full-length hepsin on the surface of LnCaP-34 cells (transfected full-length hepsin with C-terminal Flag tag plus endogenous hepsin) (human) (UniProt P05981)
[3] = target: endogenous full-length hepsin on the surface of LnCaP-17 cells (human) (UniProt P05981)
Chain of endogenous full-length hepsin on the surface of LnCaP-17 cells (human) (P05981 whole entry): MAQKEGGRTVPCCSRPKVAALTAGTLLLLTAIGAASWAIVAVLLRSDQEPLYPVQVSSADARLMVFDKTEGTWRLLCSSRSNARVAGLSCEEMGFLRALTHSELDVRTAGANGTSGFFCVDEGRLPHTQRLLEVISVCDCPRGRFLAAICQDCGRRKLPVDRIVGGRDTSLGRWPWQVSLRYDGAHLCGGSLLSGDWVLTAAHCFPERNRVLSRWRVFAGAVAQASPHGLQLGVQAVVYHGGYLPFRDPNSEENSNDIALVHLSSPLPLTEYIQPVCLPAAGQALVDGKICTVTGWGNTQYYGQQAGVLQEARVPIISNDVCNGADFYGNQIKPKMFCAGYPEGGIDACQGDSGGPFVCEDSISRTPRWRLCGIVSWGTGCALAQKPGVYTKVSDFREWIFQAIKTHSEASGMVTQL

Chain of full-length hepsin on the surface of LnCaP-34 cells (transfected full-length hepsin with C-terminal Flag tag plus endogenous hepsin) (human) (P05981 whole entry): as above

“endogenous full-length hepsin on the surface of LnCaP-17 cells (from UniProt P05981 1-417) (enzyme)” gave a Rate of pro-uPA activation per 10^6 cells, LnCaP-17, control [1] of 2.4 nM uPA hr^-1.
“KD1, Kunitz domain-1 derived from HAI-1B (from UniProt O43278 246-303)” was tested, and the Rate of pro-uPA activation per 10^6 cells, LnCaP-34, with 1 uM KD1 [2] was 0.2 nM uPA hr^-1 and the Rate of pro-uPA activation per 10^6 cells, LnCaP-17, with 1 uM KD1 [3] was 0.2 nM uPA hr^-1.
“full-length hepsin on the surface of LnCaP-34 cells (transfected full-length hepsin with C-terminal Flag tag plus endogenous hepsin) (from UniProt P05981 1-417) (enzyme)” was tested, and the Rate of pro-uPA activation per 10^6 cells, LnCaP-34, control [1] was 6.6 nM uPA hr^-1.
